The source of these data is patent US20220380455A1.

Assay [1] addresses cynomolgus (cyno) MS4A6A (cynomolgus). Put plainly: flow cytometry, hybridoma supernatant, HEK293 transfected with cyno MS4A6A over parental HEK293; Screen 1. A general note: In flow cytometry, cells or beads pass a laser one at a time.
The target is the same in assay [2]. Put plainly: flow cytometry, hybridoma supernatant, HEK293 transfected with cyno MS4A6A over parental HEK293; Screen 2.

Chain of cynomolgus (cyno) MS4A6A (cynomolgus) (Q9H2W1 other isoform, or with tags, fused parts or gaps): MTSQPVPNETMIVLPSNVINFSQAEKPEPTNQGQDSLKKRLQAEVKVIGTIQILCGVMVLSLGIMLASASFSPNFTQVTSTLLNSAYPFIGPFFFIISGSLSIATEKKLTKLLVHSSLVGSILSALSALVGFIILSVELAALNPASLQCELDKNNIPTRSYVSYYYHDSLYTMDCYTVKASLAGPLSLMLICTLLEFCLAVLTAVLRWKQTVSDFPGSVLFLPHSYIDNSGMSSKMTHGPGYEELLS

B1: 6A-20 (antibody, V domains shown)
VH: EVQLQQSGPELVKPGASVKMSCKASGYTFTDYFMKWVKQSHGKSLEWIGDINPKNGDTFYNQKFKGKATLTVDKSSSTAYMQLNSLTSEDSAVYYCARPGYFDVWGAGTTVTVSS
VL: DIVMTQAAPSVPVTPGESVSISCRSSKSLLHSDGNTYLYWFLQRPGQSPQLLIYRMSNLAPGVPDRFSGSGSGTAFTLRISRVEAEDVGVYYCMQHLEFPFIFGAGTKLELK
As to B1, the results for the ratio of APC MFI on MS4A6A+/HEK parental cells in assay [1] and in assay [2] were 2.7 and 0.2, respectively.
